± gives the standard deviation of the averaged measurements.
tested on: Saccharomyces cerevisiae; experiment: protein stability index of tFT-peptide fusion (C-terminal peptide) (PSI (0-1 scale)); higher = more stable (slower turnover); conditions: genetic background: wild type; temperature: 30 C
Experimental: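 Multiplexed protein stability (MPS) profiling in S. cerevisiae. Random 12-aa peptides (tFT-X12 library) are fused to the C-terminus of a sfGFP-mCherry tandem fluorescent timer, after mCherry and a GGGS linker. Cells are FACS-sorted into 8 mCherry/sfGFP bins and deep-sequenced. The protein stability index (PSI) is the read-weighted bin average, scaled from 0 (unstable) to 1 (stable). Only peptides with >10 reads are reported; cells were grown at 30 °C in SC-His with glucose.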
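Also: PSI is a weighted mean of sequencing reads over stability bins, variants kept only with over 10 reads, mCherry proximal and sfGFP distal, peptide attached via GGGS linker.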

Row | Sequence | protein stability index
1 | GLVVATECGGRP | 0.648 ± 0.024
2 | GLVVWFFQSPHF | 0.597 ± 0.036
3 | GLYAVHEAGWRP | 0.701 ± 0.089
4 | GLYVDRTVEVGG | 0.6228 ± 0.0035
5 | GMADVCRVGSRG | 0.674 ± 0.033
6 | GMRAGLGRWRSM | 0.737 ± 0.1
7 | GNELLINRVKPR | 0.698 ± 0.0085
8 | GNGRGKKEGPKN | 0.657 ± 0.01
9 | GNIKPNEDRGGP | 0.793 ± 0.027
10 | GNRVGQREEIEK | 0.655 ± 0.023
11 | GNRWSLTVTPNR | 0.69 ± 0.028
12 | GNSAGSGGGGRF | 0.706 ± 0.061
13 | GNSNDPALQPKQ | 0.68 ± 0.044
14 | GPALLLHRLTAP | 0.684 ± 0.066
15 | GPCPHLGLVVES | 0.703 ± 0.34
16 | GPFPMRRTFRFA | 0.667 ± 0.056
17 | GPGRGWQGGPKL | 0.739 ± 0.023
18 | GPIGVMLCNHHS | 0.674 ± 0.015
19 | GPPPAPPPLDAL | 0.734 ± 0.053
20 | GPPPPATPTPPR | 0.767 ± 0.075
21 | GPRSLVEITITD | 0.669 ± 0.029
22 | GPSLLAAQAHTN | 0.704 ± 0.038
23 | GPSQLRLSSCSF | 0.716 ± 0.041
24 | GPSTPPPRAPGT | 0.7045 ± 0.0031
25 | GPTPAPSASRCF | 0.6114 ± 0.0058

Row | Sequence | protein stability index
26 | GPVFLPLFWAGV | 0.6846 ± 0.0051
27 | GPVGPGECYDYT | 0.706 ± 0.00044
28 | GPVLILLSNNEM | 0.731 ± 0.061
29 | GPVTPADASPHC | 0.686 ± 0.034
30 | GQFASFQSTRPP | 0.754 ± 0.077
31 | GQGKWGGGGDER | 0.68276 ± 0.0003
32 | GQKRKKKGGKEE | 0.685 ± 0.065
33 | GQLAERYRPARP | 0.6903 ± 0.003
34 | GQNASYFPRRTG | 0.643 ± 0.052
35 | GQRGGRGKENSD | 0.629 ± 0.04
36 | GQTTVLPSIYKR | 0.673 ± 0.047
37 | GQWCGRLLRSGS | 0.6845 ± 0.0059
38 | GRCWAGAMGVVG | 0.71 ± 0.015
39 | GRETGGGKSRRK | 0.687 ± 0.013
40 | GRFKLCWWCCGV | 0.724 ± 0.035
41 | GRGAKPYIKQVY | 0.721 ± 0.034
42 | GRGGGGGLWVRV | 0.651 ± 0.023
43 | GRGGSIGEEWGG | 0.693 ± 0.021
44 | GRGLFRVVGLWV | 0.614 ± 0.043
45 | GRGLRWSWGCGG | 0.693 ± 0.064
46 | GRGLVSWEAGGV | 0.716 ± 0.018
47 | GRKSESEEEQRR | 0.677 ± 0.052
48 | GRLHHYGRCAQG | 0.664 ± 0.02
49 | GRLPPYLSRRLR | 0.7039 ± 0.0012
50 | GRLWGGIKGGMG | 0.663 ± 0.0096

Row | Sequence | protein stability index
51 | GRRLSGWGAWVV | 0.724 ± 0.063
52 | GRSAVRADFPFF | 0.703 ± 0.16
53 | GRSITTSCTTER | 0.673 ± 0.036
54 | GRSNRRPWRSGL | 0.649 ± 0.018
55 | GRTDRPTDINSN | 0.677 ± 0.052
56 | GRTNQKKEWIIR | 0.718 ± 0.01
57 | GRVAGNERGGGR | 0.6083 ± 0.006
58 | GRVGCGRNRLWS | 0.67 ± 0.053
59 | GRVGFSRSFKCC | 0.641 ± 0.14
60 | GRVGGGVEPCFV | 0.679 ± 0.021
61 | GRVGRGGAVGEW | 0.671 ± 0.022
62 | GRWRRWSSEGLG | 0.684 ± 0.026
63 | GSAGYLCQCSDI | 0.681 ± 0.017
64 | GSCPPHPALPHL | 0.713 ± 0.048
65 | GSEAVQRKNESC | 0.724 ± 0.08
66 | GSFLSAQRPCPV | 0.661 ± 0.023
67 | GSFPPAAHFSPD | 0.702 ± 0.043
68 | GSGGGGGYVSGN | 0.69 ± 0.021
69 | GSKISIKDKAQV | 0.685 ± 0.07
70 | GSLSIVVCSFEF | 0.542 ± 0.044
71 | GSLVSKLGLGSG | 0.69 ± 0.011
72 | GSPAVACSSPFF | 0.754 ± 0.073
73 | GSRSKLPICGCL | 0.809 ± 0.18
74 | GSRSPEARARFV | 0.68748 ± 0.00064
75 | GSRSPPPLRPPP | 0.6755 ± 0.0012

Row | Sequence | protein stability index
76 | GSSCHFPARCPV | 0.659 ± 0.018
77 | GSSKVKEGNACR | 0.694 ± 0.057
78 | GSSRRMGEGVEM | 0.69 ± 0.02
79 | GSVMGVGLEKKI | 0.732 ± 0.052
80 | GSVRLLDNLQRL | 0.663 ± 0.057
81 | GSVTIDSMIHMR | 0.667 ± 0.037
82 | GSWLGVGDRLVC | 0.717 ± 0.17
83 | GSWMSGLWQTPV | 0.722 ± 0.065
84 | GTCWAGALGVVG | 0.684 ± 0.04
85 | GTDGGRSSLGCR | 0.718 ± 0.026
86 | GTDVGKVSASQG | 0.638 ± 0.037
87 | GTGGIFAVAPTL | 0.737 ± 0.044
88 | GTGRRRGWGVMG | 0.664 ± 0.026
89 | GTLWPLPCRPDG | 0.5607 ± 0.0021
90 | GTMAVWKGQRSG | 0.698 ± 0.04
91 | GTNARGGPINIG | 0.675 ± 0.0065
92 | GTRQLGRTEPGE | 0.695 ± 0.038
93 | GTTDVHLLLECE | 0.729 ± 0.011
94 | GTTNRMVTQKGF | 0.712 ± 0.024
95 | GVCCLWVGFQGG | 0.704 ± 0.017
96 | GVCGVSKGRRHR | 0.701 ± 0.018
97 | GVCWGNFGWRAV | 0.6839 ± 0.005
98 | GVDDGGGCCRVR | 0.773 ± 0.009
99 | GVDGVLGGWGCG | 0.786 ± 0.1
100 | GVDVSCVSPFGG | 0.705 ± 0.03

Row | Sequence | protein stability index
101 | GVECGSVCGGGG | 0.651 ± 0.013
102 | GVEFKVVSFVVD | 0.646 ± 0.094
103 | GVEVSVFFFHFL | 0.576 ± 0.097
104 | GVFCWVGLSAFL | 0.5866 ± 0.004
105 | GVGGGEECHGVG | 0.556 ± 0.018
106 | GVGGGGACRPVG | 0.709 ± 0.15
107 | GVGGGMGMGERW | 0.788 ± 0.18
108 | GVGGGMWCGFGV | 0.701 ± 0.074
109 | GVGLKMLSVGDI | 0.6119 ± 0.002
110 | GVGLSGVGGLGR | 0.6439 ± 0.004
111 | GVGSVADWGGVG | 0.599 ± 0.018
112 | GVGVHAASGGEN | 0.723 ± 0.009
113 | GVGVLGGGYMCL | 0.647 ± 0.069
114 | GVGWFGRGTVGW | 0.676 ± 0.035
115 | GVGYCCVSGGLG | 0.722 ± 0.011
116 | GVIGPFSHDGCA | 0.662 ± 0.021
117 | GVILPVVKARLA | 0.472 ± 0.042
118 | GVLGLDLSVVGG | 0.716 ± 0.035
119 | GVLGSIQLFLGI | 0.699 ± 0.0091
120 | GVLPWQYSSFLS | 0.694 ± 0.058
121 | GVLRGNRITECF | 0.716 ± 0.049
122 | GVLVAFLWGESV | 0.593 ± 0.018
123 | GVRDGGTRGSEG | 0.7012 ± 0.0055
124 | GVRGGWVVNRGV | 0.732 ± 0.026
125 | GVRLSPTACSSI | 0.678 ± 0.071

Row | Sequence | protein stability index
126 | GVRRAAFAKYGG | 0.655 ± 0.0071
127 | GVRRSQSCPVRS | 0.7065 ± 0.0051
128 | GVRYFKWGCTHG | 0.684 ± 0.029
129 | GVSAPGDAGAVP | 0.654 ± 0.015
130 | GVSCGWVAHARW | 0.694 ± 0.061
131 | GVSSGVSFVLGH | 0.702 ± 0.0083
132 | GVSVGGSSGGSG | 0.6868 ± 0.0048
133 | GVSVSSSFLNGC | 0.669 ± 0.019
134 | GVTGGWVVNRGV | 0.7054 ± 0.007
135 | GVTGRGVSRVYG | 0.671 ± 0.013
136 | GVTLKSPTGRVF | 0.666 ± 0.097
137 | GVVGGVGGFFGC | 0.754 ± 0.0013
138 | GVVGLEVLGRWG | 0.687 ± 0.047
139 | GVVMMGERGGER | 0.685 ± 0.049
140 | GVWREVGNIEEV | 0.701 ± 0.0099
141 | GVWWRRVVFGRR | 0.696 ± 0.075
142 | GWCTLASGLFTT | 0.673 ± 0.1
143 | GWGGVWGRVWWR | 0.563 ± 0.05
144 | GWGKWGVGIGRG | 0.694 ± 0.032
145 | GWIAEFGLAGGP | 0.661 ± 0.0089
146 | GWLGPGCVGRMQ | 0.733 ± 0.068
147 | GWPLWGAVRGFW | 0.71 ± 0.035
148 | GWPVGSLKTPCR | 0.726 ± 0.046
149 | GWRFGKVCGLGG | 0.726 ± 0.07
150 | GWSTKSTYHKPT | 0.732 ± 0.025

Row | Sequence | protein stability index
151 | GYFSTFIKSSML | 0.715 ± 0.029
152 | GYKLLIEGNWEV | 0.756 ± 0.025
153 | GYRRTGGLHGVV | 0.716 ± 0.034
154 | GYRSLADSIDLL | 0.7244 ± 0.0066
155 | GYRSSWRALRVG | 0.564 ± 0.076
156 | GYTDPYPAAAPS | 0.639 ± 0.056
157 | GYVHPSWLWANT | 0.732 ± 0.033
158 | GYVVVGGGGWLG | 0.6754 ± 0.0025
159 | GYYPVALDYKLR | 0.708 ± 0.05
160 | HCFASLITSIVH | 0.535 ± 0.025
161 | HCSVSGLQLFMD | 0.699 ± 0.019
162 | HCYKRGSCTSLI | 0.631 ± 0.087
163 | HDPRVGDNAHFV | 0.641 ± 0.099
164 | HFFSFLACFVDL | 0.632 ± 0.054
165 | HFLPFSLLLFPP | 0.755 ± 0.14
166 | HFPLRIYSPNGP | 0.697 ± 0.095
167 | HFPLSLSPPPPP | 0.721 ± 0.032
168 | HFQASRLLCEGD | 0.638 ± 0.026
169 | HFVAALVLLTLD | 0.72 ± 0.17
170 | HFVAPLSPRGSL | 0.633 ± 0.038
171 | HGAPLPTSAPKH | 0.7271 ± 0.0031
172 | HGTAQGVRRQGV | 0.711 ± 0.16
173 | HGWACSRSPCAV | 0.756 ± 0.048
174 | HHAHRLPTLATS | 0.693 ± 0.074
175 | HHAKWAHGTPAQ | 0.681 ± 0.022

Row | Sequence | protein stability index
176 | HHSLLLPPPPPP | 0.673 ± 0.019
177 | HILDDHVRISNA | 0.685 ± 0.0096
178 | HIPHSKPRTSLP | 0.734 ± 0.048
179 | HKDVRGRSLSRM | 0.7183 ± 0.0024
180 | HKENTKEKKKRE | 0.693 ± 0.043
181 | HLFPSPPPSTLP | 0.495 ± 0.045
182 | HLFVPGAFFFFS | 0.718 ± 0.073
183 | HLGIKGFHIFGY | 0.69 ± 0.0071
184 | HLIPSPPTPPRP | 0.664 ± 0.0072
185 | HLKPTPPLPPNT | 0.67 ± 0.017
186 | HLLPRPIRPSTP | 0.664 ± 0.074
187 | HLLSPPLPPSPA | 0.728 ± 0.039
188 | HLPPLPRPPSLT | 0.7049 ± 0.0069
189 | HLPSLLRPPFLL | 0.7038 ± 0.0018
190 | HLPSPSLPSPYF | 0.7648 ± 0.0017
191 | HLPSSRHNPLQN | 0.695 ± 0.037
192 | HLPWTGTPHATV | 0.737 ± 0.029
193 | HLRSALSVHPTL | 0.707 ± 0.051
194 | HLSPPPLMPPCC | 0.759 ± 0.067
195 | HNDYKGSQIDNG | 0.573 ± 0.046
196 | HNIQHKIHTKSR | 0.761 ± 0.039

From the supplement of paper PMC10724198
